Reference: paper PMC1762320, “Separation of Anti-Proliferation and Anti-Apoptotic Functions of Retinoblastoma Protein through Targeted Mutations of Its A/B Domain” (PLoS ONE, 2006)

Target: E2F1 induced in SAOS-2-tet-E2F1 cells (human, UniProt Q01094 1-437)
Assay: cell-based or functional assay

Sequence of E2F1 induced in SAOS-2-tet-E2F1 cells (Q01094 whole entry): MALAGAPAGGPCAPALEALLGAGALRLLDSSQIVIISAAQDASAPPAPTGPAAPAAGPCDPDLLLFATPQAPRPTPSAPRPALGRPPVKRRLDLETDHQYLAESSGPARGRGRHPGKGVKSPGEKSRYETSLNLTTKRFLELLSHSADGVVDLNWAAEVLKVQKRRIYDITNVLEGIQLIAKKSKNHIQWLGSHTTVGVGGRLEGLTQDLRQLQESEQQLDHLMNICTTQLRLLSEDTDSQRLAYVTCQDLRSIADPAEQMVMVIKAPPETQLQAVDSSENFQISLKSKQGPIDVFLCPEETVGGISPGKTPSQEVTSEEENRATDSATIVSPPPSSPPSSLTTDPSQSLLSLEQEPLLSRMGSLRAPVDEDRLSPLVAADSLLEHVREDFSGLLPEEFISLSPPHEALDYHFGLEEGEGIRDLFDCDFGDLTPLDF

Gal4-Luc luciferase reporter in SAOS-2 cells co-transfected with Gal4-E2F1 (Gal4 DNA-binding domain and transactivation domain of E2F1) and RB: reduction of Gal4-E2F1 activity: 3 fold
B1: retinoblastoma protein RB (wild type, expressed in cells) (natural protein, human, UniProt P06400 1-928, looked up)
chain: MPPKTPRKTAATAAAAAAEPPAPPPPPPPEEDPEQDSGPEDLPLVRLEFEETEEPDFTALCQKLKIPDHVRERAWLTWEKVSSVDGVLGGYIQKKKELWGICIFIAAVDLDEMSFTFTELQKNIEISVHKFFNLLKEIDTSTKVDNAMSRLLKKYDVLFALFSKLERTCELIYLTQPSSSISTEINSALVLKVSWITFLLAKGEVLQMEDDLVISFQLMLCVLDYFIKLSPPMLLKEPYKTAVIPINGSPRTPRRGQNRSARIAKQLENDTRIIEVLCKEHECNIDEVKNVYFKNFIPFMNSLGLVTSNGLPEVENLSKRYEEIYLKNKDLDARLFLDHDKTLQTDSIDSFETQRTPRKSNLDEEVNVIPPHTPVRTVMNTIQQLMMILNSASDQPSENLISYFNNCTVNPKESILKRVKDIGYIFKEKFAKAVGQGCVEIGSQRYKLGVRLYYRVMESMLKSEEERLSIQNFSKLLNDNIFHMSLLACALEVVMATYSRSTSQNLDSGTDLSFPWILNVLNLKAFDFYKVIESFIKAEGNLTREMIKHLERCEHRIMESLAWLSDSPLFDLIKQSKDREGPTDHLESACPLNLPLQNNHTAADMYLSPVRSPKKKGSTTRVNSTANAETQATSAFQTQKPLKSTSLSLFYKKVYRLAYLRLNTLCERLLSEHPELEHIIWTLFQHTLQNEYELMRDRHLDQIMMCSMYGICKVKNIDLKFKIIVTAYKDLPHAVQETFKRVLIKEEEYDSIIVFYNSVFMQRLKTNILQYASTRPPTLSPIPHIPRSPYKFPSSPLRIPGGNIYISPLKSPYKISEGLPTPTKMTPRSRILVSIGESFGTSEKFQKINQMVCNSDRVLKRSAEGSNPPKPLKKLRFDIEGSDEADGSKHLPGESKFQQKLAEMTSTRTRMQKQKMNDSMDTSNKEEK
